Experimental findings from patent US20230250177A1 (INTERVET, published 2023) are described below.

The target in assay [1] is biotinylated canine IL-31 (canine). The experiment in a line: ELISA: IL-31RA coated at 10 µg/mL, biotinylated IL-31 titrated 3-fold from 10 µg/mL, HRP-streptavidin.
Assay [2] has as its target T1, canine IL-22 with a C-terminal HIS tag (canine).
T1 construct: Recombinant, made in HEK-293 or CHO cells; coated on the ELISA plate; also called cIL-22-His; canine IL-22-HIS
T1 chain: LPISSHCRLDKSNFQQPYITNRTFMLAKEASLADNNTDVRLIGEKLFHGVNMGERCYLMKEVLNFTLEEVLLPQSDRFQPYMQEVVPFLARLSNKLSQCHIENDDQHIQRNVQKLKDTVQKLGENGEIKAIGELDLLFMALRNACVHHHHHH
The assay is described as follows: ELISA: cIL-22-His coated at 1 µg/mL, Fezakinumab titrated from 5 µg/mL, anti-human IgG Fc-HRP. Here is the method:
The binding of canine IL-22 HIS to the anti-IL-22 antibody Fezakinumab was determined by ELISA as follows: […]
(In general: ELISA stands for enzyme-linked immunosorbent assay.)

In the case of “Canine IL-31RA ECD-10His (extracellular domain of canine IL-31 receptor alpha fused to a HIS tag)”, the EC50 (commonly the midpoint of the concentration-response curve) in assay [1] worked out at 0.368 µg/mL.

B1: Fezakinumab (human monoclonal anti-IL-22 antibody) (antibody, human IgG1, lambda, V domains shown)
VH: QVQLVQSGAEVKKPGASVKVSCKASGYTFTNYYMHWVRQAPGQGLEWVGWINPYTGSAFYAQKFRGRVTMTRDTSISTAYMELSRLRSDDTAVYYCAREPEKFDSDDSDVWGRGTLVTVSS
VL: QAVLTQPPSVSGAPGQRVTISCTGSSSNIGAGYGVHWYQQLPGTAPKLLIYGDSNRPSGVPDRFSGSKSGTSASLAITGLQAEDEADYYCQSYDNSLSGYVFGGGTQLTVLG
notes: Full human heavy and light chains, marked PRIOR ART; made recombinantly in HEK-293 or CHO cells; also called Fezakinumab-mAb; Feza-mAb
For B1, the binding result in assay [2] was “binds”.
